The target in assay [1] is T1, CTLA4-Fc (Fitzgerald, #30R-CD152) (human, UniProt P16410 38-152).
T1 construct: Bought; also called human CTLA-4 (Fitzgerald); biotinylated-CTLA4; not shown: Fc part of the bought fusion, not described
The assay is described as follows: ELISA on coated CTLA4-Fc and CD28-Fc. As for the experimental part: 96-well flat bottom high binding plates (Greiner, #655074) were coated with either CTLA4-Fc (Fitzgerald, #30R-CD152) or CD28-Fc (R&D systems, 342-CD) by incubating overnight at 4° C. […] The plates were washed again and sample or controls (serially diluted ⅕ from 200-0.001 μg/ml) were added to the wells. The samples were incubated for 1 h at room temperature and then washed. Detection antibody, goat-anti-human IgG Fcγ-HRP (Jackson, #109-035-098) was added and the plates were subsequently developed using SuperSignal Pico Chemiluminescent substrate (Thermo Scientific, #37069) and detected with an Envision reader (Perkin Elmer). EC50 values were calculated for both CTLA4 and CD28. The binding ratio (EC50 binding ratio=[EC50 for CD28]÷[EC50 for CTLA-4]) was calculated for each polypeptide and is shown in Table 1.1.
(An ELISA detects its analyte on a solid surface through an enzyme-linked reagent.)

For assay [2], the target named is T1, CTLA4-Fc (Fitzgerald, #30R-CD152). The assay is described as follows: SPR on immobilised CTLA4-Fc and CD28-Fc. As for the experimental part: (§1) Either CTLA4-Fc (Fitzgerald, #30R-CD152) or CD28-Fc (R&D Systems, 342-CD) was immobilized to the Biacore™ sensor chip, CM5, using conventional amine coupling. The CD86 mutant molecules and controls (serially diluted ½ 100-1.5 nM) were analyzed for binding in HBS-P (GE, BR-1003-68) at a flow rate of […]. The association was followed for 3 minutes and the dissociation for 10 minutes. Regeneration was performed twice using 5 mM NaOH for 30 seconds. The kinetic parameters and the affinity constants were calculated using BIAevaluation 4.1 software (Table 1.3).

The target is the same in assay [3]. The assay is described as follows: SPR (Biacore), immobilised CTLA4-Fc. As to the method: as §1
Background: SPR reads the build-up and loss of mass on a sensor chip optically.

Assay [4] addresses T2, soluble murine CTLA-4 (R&D systems) (murine, UniProt P09793 36-162).
T2 construct: Bought
The assay is described as follows: not described. As to the method:
In brief, 96-well flat bottom plate high binding plates (Greiner #655074) were coated with human CTLA-4 (Fitzgerald) incubating overnight at 4° C.
The sample (exemplary CD86 mutant) was pre-incubated at room temperature for 1 hour with soluble biotinylated human CTLA4 (Fitzgerald #30R-CD152) or soluble murine CTLA-4 (R&D systems) at different concentrations (serial dilutions ¼ from 30000 to 0.3 ng/ml).
The mixture was then added to the blocked wells in the ELISA plate. Detection was performed with Streptavidin-HRP (Pierce, #21126) and the plates were subsequently developed using SuperSignal Pico Chemiluminescent substrate (Thermo Scientific, #37069) and detected with Envision reader (Perkin Elmer).

The target of assay [5] is T3, CD40 (Ancell) (UniProt P25942 21-193).
T3 construct: also called CD40-Fc (Ancell #504-820); not shown: Fc part, not described
The assay is described as follows: ELISA.

In assay [6] the target is T4, recombinant human CD137-Fc (R&D #838-4B) (human, UniProt Q07011 24-186).
T4 construct: Bought; also called Human CD137 (R&D systems); CD137 (R&D Systems); not shown: Fc part, not described
The assay is described as follows: ELISA.

For assay [7], the target named is T5, murine OX40 (murine, UniProt P47741 20-211, limits assumed).
T5 sequence (looked up): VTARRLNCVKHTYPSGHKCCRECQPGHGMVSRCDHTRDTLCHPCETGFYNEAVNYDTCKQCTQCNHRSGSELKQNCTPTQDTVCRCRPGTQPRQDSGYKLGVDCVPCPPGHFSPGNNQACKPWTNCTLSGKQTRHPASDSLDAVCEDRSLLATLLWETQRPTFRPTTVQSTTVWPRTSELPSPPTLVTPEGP
The assay is described as follows: ELISA.

The target of assay [8] is T6, OX40 chimera 1548: human OX40 with mouse module 3 and domains 4A and 4B (aa 108-167), on FreeStyle 293-F cells (human; mouse, UniProt P47741 104-165).
T6 construct: domain: module 3, 4A and 4B; Limits derived as for 1544
T6 sequence: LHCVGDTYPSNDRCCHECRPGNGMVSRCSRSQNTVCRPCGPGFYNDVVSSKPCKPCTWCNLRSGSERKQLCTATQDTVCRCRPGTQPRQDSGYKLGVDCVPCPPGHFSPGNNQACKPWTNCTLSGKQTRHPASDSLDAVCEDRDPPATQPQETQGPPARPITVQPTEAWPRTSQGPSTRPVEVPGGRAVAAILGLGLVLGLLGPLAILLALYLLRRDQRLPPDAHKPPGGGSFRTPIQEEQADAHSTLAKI
The assay is described as follows: flow cytometry, 293-F transfectants. As to the method:
The mouse/human chimeras were transiently transfected into FreeStyle 293-F cells (Invitrogen), incubated 48 hours in FreeStyle 293 expression medium (Invitrogen) 37 C, 8% CO₂, 135 rpm. The transfected cells were incubated with human OX40 antibodies, human OX40L (hOX40L, RnD Systems), mouse OX40L (mOX40L, RnD Systems) and controls for 30 min 4° C. and then detected with a-huIgG-PE (Jackson Immunoresearch) 30 min 4° C. Cells were analyzed with FACS Verse (BD Biosciences). Binding to the different chimeric constructs were calculated as relative (mean fluorescence intensity) MFI compared to the binding of the isotype control.
For orientation: Flow cytometry measures light scatter and fluorescence of single cells or particles in a stream.

Substitutions are numbered along the chain they refer to. In names and notes the source's numbering stands.

T1 sequence (P16410 38-152 limits assumed): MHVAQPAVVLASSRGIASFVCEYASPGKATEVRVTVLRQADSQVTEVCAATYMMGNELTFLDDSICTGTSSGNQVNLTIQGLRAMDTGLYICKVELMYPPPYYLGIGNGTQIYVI
T3 sequence (P25942 21-193 limits assumed): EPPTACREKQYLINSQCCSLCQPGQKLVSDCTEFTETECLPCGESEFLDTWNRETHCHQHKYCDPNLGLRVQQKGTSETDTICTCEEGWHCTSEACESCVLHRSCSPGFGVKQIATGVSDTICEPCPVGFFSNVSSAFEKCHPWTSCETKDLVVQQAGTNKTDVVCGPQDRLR
T4 sequence (Q07011 24-186 limits assumed): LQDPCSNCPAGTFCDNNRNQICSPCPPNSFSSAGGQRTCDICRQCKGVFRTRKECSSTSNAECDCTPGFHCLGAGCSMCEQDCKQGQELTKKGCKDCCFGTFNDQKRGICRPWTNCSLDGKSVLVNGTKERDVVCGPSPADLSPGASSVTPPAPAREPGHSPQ

B1: human wild-type CD86 (monomeric soluble extracellular domain) (ligand)
chain: APLKIQAYFNETADLPCQFANSQNQSLSELVVFWQDQENLVLNEVYLGKEKFDSVHSKYMGRTSFDSDSWTLRLHNLQIKDKGLYQCIIHHKKPTGMIRIHQMNSELSVLA
notes: also called wild type protein
With B1, in assay [1], the “EC50 binding ratio ([EC50 for CD28]/[EC50 for CTLA-4])” value (“EC50 binding ratio” for short) turned out to be 3.4. The “Kd binding ratio ([Kd for CD28]/[Kd for CTLA-4])” value (from here on “Kd binding ratio”) in assay [2] came to 1.6. In assay [3], this molecule registered a Kd of 50 nM, a koff of 0.023 s⁻¹ and a kon of 460000 M⁻¹ s⁻¹.

B2: CD86 mutant 1038 (ligand)
chain: B1 chain with Q25L, H56D, L84I, I98V, R99K, Q102E
notes: Variant of the CD86 extracellular domain
In the case of B2, in assay [3], the affinity, expressed as Kd, was 12 nM; the koff is 0.012 s⁻¹; the kon was 1e+06 M⁻¹ s⁻¹. For the same molecule, the binding result in assay [4] is “binds”.

B3: CD86 mutant 1046 (ligand)
chain: B1 chain with H56D, K80E, L84I, T95S, I98V, R99K, N104D
notes: as for B2
In assay [3], B3 yielded a Kd of 6 nM, a koff of 0.008 s⁻¹ and a kon of 1.4e+06 M⁻¹ s⁻¹. Also, in assay [4], the binding result was “binds”.

B4: CD86 mutant H79A (Peach et al.) (ligand)
chain: B1 chain with H56A
notes: also called Prior Art
In assay [3], B4 registered a Kd of 63 nM, an off-rate (koff) of 0.022 s⁻¹ and a kon of 340000 M⁻¹ s⁻¹.

B5: CD86 mutant 1045 (ligand)
chain: B1 chain with Q25L, S26T, H56D, M97L, I98V, R99K, Q102E
notes: as for B2
In assay [3], B5 showed a Kd of 9 nM, a koff of 0.0083 s⁻¹ and a kon of 940000 M⁻¹ s⁻¹. For the same molecule, in assay [4], the binding result is reported as “binds”.

B6: CD86 mutant 1044 (ligand)
chain: B1 chain with Q25L, S26T, H56S, L84I, R99K, Q102E, N104S
notes: as for B2
Take B6: in assay [3], the Kd worked out at 8 nM, the dissociation rate constant (koff) is 0.0094 s⁻¹ and the kon is 1.1e+06 M⁻¹ s⁻¹. In addition, the binding result in assay [4] is “binds”.

B7: CD86 mutant 1042 (ligand)
chain: B1 chain with Q25L, K51I, H56S, L84I, T95S, I98V, R99K, N104D
notes: as for B2
B7: in assay [3], the Kd was 25 nM, the koff is 0.011 s⁻¹ and the kon worked out at 440000 M⁻¹ s⁻¹. Also, the binding result in assay [4] is “binds”.

B8: CD86 mutant 1047 (ligand)
chain: B1 chain with Q25L, H56D, L84I, M97L, I98V, R99K, Q102E
notes: as for B2
Consider B8, for which, in assay [3], binding was put at a Kd of 10 nM, the koff turned out to be 0.0084 s⁻¹ and the kon stood at 850000 M⁻¹ s⁻¹. In assay [4], the binding result was “binds”.

B9: CD86 mutant 1041 (ligand)
chain: B1 chain with F9L, Q25L, H56D, L84I, M97L, I98V, R99K, Q102E
notes: as for B2
Turning to B9, in assay [3], binding was put at a Kd of 12 nM, the koff came out at 0.0084 s⁻¹ and the kon was 700000 M⁻¹ s⁻¹. Further, the binding result in assay [4] is “binds”.

B10: CD86 mutant 1039 (ligand)
chain: B1 chain with Q25L, H56S, L84I, T95S, I98V, R99K, N104D
notes: as for B2
In the case of B10, in assay [3], the Kd worked out at 8 nM, the koff worked out at 0.0085 s⁻¹ and the kon was 1e+06 M⁻¹ s⁻¹. Besides, in assay [4], the binding result is recorded as “binds”.

B11: CD86 mutant 1043 (ligand)
chain: B1 chain with Q25L, H56D, L84I, R99K, Q102E
notes: as for B2
In assay [3], B11 had a Kd of 10 nM, a koff of 0.011 s⁻¹ and a kon of 1.1e+06 M⁻¹ s⁻¹. Further, the binding result in assay [4] is on record as “binds”.

B12: CD86 mutant 910 (ligand)
chain: LKIQAYFNETADLPCQFANSQNQSLSELVVFWQDQENLVLNEVYLGKEKFDSVDSKYMGRTSFDSDSWTLRLHNLQIKDKGIYQCIIHHKKPTGMVKIHEMNSELSVLA
notes: as for B2
For the molecule B12, the “EC50 binding ratio” value in assay [1] stood at 7.7. The “Kd binding ratio” value in assay [2] turned out to be 5.1. Besides, the binding result in assay [4] is listed as “binds”.

B13: CD86 mutant 900 (ligand)
chain: B12 chain with I86V, T93S, M95L
notes: as for B2
Consider B13, for which the “EC50 binding ratio” value in assay [1] was 3.5. The binding result in assay [4] is listed as “binds”.

B14: CD86 mutant 908 (ligand)
chain: B12 chain with D54H
notes: as for B2
In the case of B14, the “EC50 binding ratio” value in assay [1] was found to be 6.2. Moreover, the “Kd binding ratio” value in assay [2] stood at 4.7. The binding result in assay [4] is given as “binds”.

B15: CD86 mutant 901 (ligand)
chain: B12 chain with Q23L, S24T, D54H, I86V, V96I, A109T
notes: as for B2
Consider B15, for which the “EC50 binding ratio” value in assay [1] is 17.2. Also, the “Kd binding ratio” value in assay [2] is 2.7. The binding result in assay [4] is reported as “binds”.

B16: CD86 mutant 906 (ligand)
chain: B12 chain with F7I, Q23L, K49R, I82F, M95L
notes: as for B2
With B16, in assay [1], the “EC50 binding ratio” value came out at 16.2. Moreover, the “Kd binding ratio” value in assay [2] came out at 0.8. The binding result in assay [4] is reported as “binds”.

B17: CD86 mutant 904 (ligand)
chain: B12 chain with V29I, K49R, S52A, T93S, E100Q, N102D
notes: as for B2
For B17, the “EC50 binding ratio” value in assay [1] is 12.2. Further, in assay [2], the “Kd binding ratio” value came out at 6.8. Moreover, the binding result in assay [4] was “binds”.

B18: CD86 mutant 907 (ligand)
chain: B12 chain with D54H, I82L, V96I
notes: as for B2
For the molecule B18, in assay [1], the “EC50 binding ratio” value came out at 30.5. In addition, the “Kd binding ratio” value in assay [2] turned out to be 5.6. For the same molecule, the binding result in assay [4] is given as “binds”.

B19: anti-OX40 antibody 1490/1135 (antibody, V domains shown)
VH: EVQLLESGGGLVQPGGSLRLSCAASGFTFSSYAMSWVRQAPGKGLEWVSGISYYGGYTYYADSVKGRFTISRDNSKNTLYLQMNSLRAEDTAVYYCARYYPHHYIDYWGQGTLVTVSS
VL: not shown
notes: Tested as IgG
On to B19, for which the binding result in assay [5], in assay [6] and in assay [7] was “no binding” in each case. Also, the “relative MFI vs isotype control” value in assay [8] stood at 1.1.

Usually Kd stands for the equilibrium constant for the complex coming apart. Higher therefore signals lower affinity. The term koff denotes the first-order rate constant of dissociation. High values mean a short-lived complex, low ones a long-lived complex. For orientation: kon means a measure of how fast the partners come together.

(Values after patent US20210238298A1 (ALLIGATOR BIOSCIENCE, published 2021).)
